Values quoted from earlier work in patent US8865021B2, “Compositions of lipids and cationic peptides” (Camurus AB, priority 2003, dated 2014).
Residues, ends and D or L forms follow the SMILES beside them. No end group written: not given here.

B1: IL-19 (protein, UniProt Q9UHD0 25-177, looked up)
Interleukin-19: LRRCLISTDMHHIEESFQEIKRAIQAKDTFPNVTILSTLETLQIIKPLDVCCVTKNLLAFYVDRVFKDHQEPNPKILRKISSIANSFLYMQKTLRQCQEQRQCHCRQEATNATRVIHDNYDQLEVHAAAIKSLGELDVFLAWINKNHEVMFSA
notes: Melanoma differentiation associated protein-like protein
B2: IL-26 (protein, UniProt Q9NPH9 22-171, looked up)
Interleukin-26: KHKQSSFTKSCYPRGTLSQAVDALYIKAAWLKATIPEDRIKNIRLLKKKTKKQFMKNCQFQEQLLSFFMEDVFGQLQLQGCKKIRFVEDFHSLRQKLSHCISCASSAREMKSITRMKRIFYRIGNKGIYKAISELDILLSWIKKLLESSQ
B3: Interferon-alpha 1/13 (protein, UniProt P01562 24-189, looked up)
Interferon alpha-1/13: CDLPETHSLDNRRTLMLLAQMSRISPSSCLMDRHDFGFPQEEFDGNQFQKAPAISVLHELIQQIFNLFTTKDSSAAWDEDLLDKFCTELYQQLNDLEACVMQEERVGETPLMNADSILAVKKYFRRITLYLTEKKYSPCAWEVVRAEIMRSLSLSTNLQERLRRKE
B4: Filgrastim (protein, UniProt P09919 31-207, looked up)
Granulocyte …: TPLGPASSLPQSFLLKCLEQVRKIQGDGAALQEKLVSECATYKLCHPEELVLLGHSLGIPWAPLSSCPSQALQLAGCLSQLHSGLFLYQGLLQALEGISPELGPTLDTLQLDVADFATTIWQQMEELGMAPALQPTQGAMPAFASAFQRRAGGVLVASHLQSFLEVSYRVLRHLAQP
modifications: N-terminal methionine, non-glycosylated
notes: neutropenia
B5: IL-24 (protein, UniProt Q13007 52-206, looked up)
Interleukin-24: QEFHFGPCQVKGVVPQKLWEAFWAVKDTMQAQDNITSARLLQQEVLQNVSDAESCYLVHTLLEFYLKTVFKNYHNRTVEVRTLKSFSTLANNFVLIVSQLQPSQENEMFSIRDSAHRRFLLFRRAFKQLDVEAALTKALGEVDILLTWMQKFYKL
notes: Melanoma differentiation associated protein 7
B6: Interferon-gamma (protein, UniProt P01579 24-161, looked up)
Interferon gamma: QDPYVKEAENLKKYFNAGHSDVADNGTLFLGILKNWKEESDRKIMQSQIVSFYFKLFKNFKDDQSIQKSVETIKEDMNVKFFNSNKKKRDDFEKLTNYSVTDLNVQRKAIHELIQVMAELSPAAKTGKRKRSQMLFRG
B7: human Chorionic Gonadotropin-beta (protein, UniProt P0DN86 21-165, looked up)
Choriogonadotropin subunit …: SKEPLRPRCRPINATLAVEKEGCPVCITVNTTICAGYCPTMTRVLQGVLPALPQVVCNYRDVRFESIRLPGCPRGVNPVVSYAVALSCQCALCRRSTTDCGGPKDHPLTCDDPRFQDSSSSKAPPPSLPSPSRLPGPSDTPILPQ
notes: Infertility
B8: IL-11 (protein, UniProt P20809 22-199, looked up)
Interleukin-11: PGPPPGPPRVSPDPRAELDSTVLLTRSLLADTRQLAAQLRDKFPADGDHNLDSLPTLAMSAGALGALQLPGVLTRLRADLLSYLRHVQWLRRAGGSSLKTLEPELGTLQARLDRLLRRLQLLMSRLALPQPPPDPPAPPLAPPSSAWGGIRAAHAILGGLHLTLDWAVRGLLLLKTRL

Conditions: salmon vs human calcitonin

In the case of “Calcitonin (salmon) [reference compound]”, the “potency by weight relative to the human hormone” value is listed as “around 50 times”.

Conditions: Table 2

Point of comparison: Somatotropin, “Isoelectric pH” value 5.27 pH. Against it:
- CC[C@H](C)[C@@H]1NC(=O)[C@H](Cc2ccc(O)cc2)NC(=O)[C@@H](N)CSSC[C@@H](C(=O)N2CCC[C@H]2C(=O)N[C@@H](CC(C)C)C(=O)NCC(N)=O)NC(=O)[C@H](CC(N)=O)NC(=O)[C@H](CCC(N)=O)NC1=O [Oxytocin, reference compound] — higher, 5.51 pH
- CC(C)[C@@H]1NC(=O)[C@H](CCCNC(=N)N)NC(=O)[C@H](Cc2ccccc2)NC(=O)[C@@H](NC(=O)[C@H](Cc2c[nH]c3ccccc23)NC(=O)[C@H](CCCNC(=N)N)NC(=O)[C@@H](N)CCCNC(=N)N)CSSC[C@@H](C(=O)N[C@@H](CCCNC(=N)N)C(N)=O)NC(=O)[C@H](CCCCN)NC(=O)[C@H](CCCNC(=N)N)NC(=O)[C@H](Cc2ccc(O)cc2)NC(=O)[C@@H]2CSSC[C@H](NC1=O)C(=O)N[C@@H](Cc1ccc(O)cc1)C(=O)N[C@@H](CCCCN)C(=O)NCC(=O)N[C@@H](Cc1ccccc1)C(=O)N2 [Polyphemusin II] (HELM PEPTIDE1{R.R.W.C.F.R.V.C.Y.K.G.F.C.Y.R.K.C.R.[am]}$PEPTIDE1,PEPTIDE1,4:R3-17:R3|PEPTIDE1,PEPTIDE1,8:R3-13:R3$$$V2.0) — higher, 10.1 pH
- NC(=O)CC[C@@H]1NC(=O)[C@H](Cc2ccccc2)NC(=O)[C@H](Cc2ccc(O)cc2)NC(=O)[C@@H](N)CSSC[C@@H](C(=O)N2CCC[C@H]2C(=O)N[C@@H](CCCN=C(N)N)C(=O)NCC(N)=O)NC(=O)[C@H](CC(N)=O)NC1=O [Vassopresin, reference compound] — higher, 8.06 pH
- Alteplase — higher, 7.61 pH
- Becaplermin — higher, 9.38 pH
- Calcitonin (salmon) [reference compound] — higher, 8.86 pH
- Follitropin-beta — higher, 5.91 pH
- GMCSF — lower, 5.21 pH
- IL-1 beta — higher, 5.91 pH
- IL-1alpha — higher, 5.3 pH
- IL-4 — higher, 9.26 pH
- IL-5 — higher, 7.02 pH
- IL-6 — higher, 6.21 pH
- IL-7 — higher, 8.72 pH
- IL-8 — higher, 9.24 pH
- IL-10 — higher, 7.63 pH
- IL-13 — higher, 8.81 pH
- IL-15 — lower, 4.52 pH
- IL-17 — higher, 8.62 pH
- IL-18 — lower, 5.04 pH
- Indolicidin (ILPWKWPWWPWRR; ends and bridges not checked; UniProt P33046 131-143, looked up) [Indolicidin (e.g. bovine), antibacterial, antifungal, anticancer, antiviral, antiparasite] — higher, 12.01 pH
- Insulin α — lower, 3.79 pH
- Intercellular Adhesion Molecule 1 — higher, 9.51 pH
- Interleukin-1 receptor antagonist — higher, 8.51 pH
- Lepirudin — lower, 4.04 pH
- Magainin I — higher, 10 pH
- Magainin II — higher, 10 pH
- Mellitin — higher, 12.02 pH
- OspA — higher, 6.72 pH
- Pneumadin — lower, 4.36 pH
- Polyphemusin I (RRWCFRVCYRGFCYRKCR; ends and bridges not checked; cysteine pairing not given here; UniProt P14215 1-18, looked up) [antibacterial, antifungal, antiviral] — higher, 10.33 pH
- Protegrin [Protegrin (e.g. swine)] — higher, 10.66 pH
- Secretin (HSDGTFTSELSRLRDSARLQRLLQGLV; ends and bridges not checked; UniProt P63298 33-59, looked up) [Secretin (e.g. swine), pancreatic assessment, 27 amino acids, reference compound] — higher, 9.45 pH
- Somatostatin [Somatostatin (& analogues), reference compound] — higher, 9.58 pH
- Tachyplesin I (KWCFRVCYRGICYRRCR; ends and bridges not checked; cysteine pairing not given here; UniProt P14213 24-40, looked up) [antibacterial, antiviral, 17 amino acids] — higher, 9.93 pH
- Tuftsin — higher, 11 pH
- B1 — higher, 7.8 pH
- B2 — higher, 9.99 pH
- B3 — lower, 5.18 pH
- B4 — higher, 5.43 pH
- B5 — higher, 8.6 pH
- B6 — higher, 9.54 pH
- B7 — higher, 8.65 pH
- B8 — higher, 11.16 pH

Same assay, conditions: approximate values

For NC(=O)CC[C@@H]1NC(=O)[C@H](Cc2ccccc2)NC(=O)[C@H](Cc2ccc(O)cc2)NC(=O)[C@@H](N)CSSC[C@@H](C(=O)N2CCC[C@H]2C(=O)N[C@@H](CCCN=C(N)N)C(=O)NCC(N)=O)NC(=O)[C@H](CC(N)=O)NC1=O [Vassopresin, reference compound], the isoelectric point is given as “around 8.0 pH”.
In the case of “Calcitonin (salmon) [reference compound]”, the isoelectric point is given as about 8.9 pH.
For Insulin α, the isoelectric point is listed as “around 4 pH”.
For Lepirudin, the isoelectric point is given as “around 4 pH”.
In the case of octreotide [reference compound], the isoelectric point is given as “around 8.0 pH”.
